Experimental data taken from the domain aggregation screens of Martell et al. (2025).

Test: soluble fraction after stress (log2 fold change); higher = more stays soluble; pooled small domains, quantitative proteomics
Details: stress: 50 degC
Method in brief: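 The measure of aggregation propensity here is the base-two logarithm of the fold change in the soluble amount of each protein after stress. A higher value means more of that protein stays in solution. Stress was applied at 50°C to pooled libraries of small protein domains, read out by high-throughput quantitative proteomics.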

Sequence	soluble fraction (log2)
HMDDKVGKVFNYVQEKILTGEWDIGDKITPEISLSKELGVSRSVVREAIKKFVALNILSRTQGGGTYVNNL	-0.515
HMADQIIEGILGKEGGYVNNPNDKGGPTRWGITQTTARAYGYSGDMKALPRDTAKAIYLSQYWT	-0.183
HMEWGEADFVRLDEALATLRTLSPRQAEVVDLRFFSELSLEETAATLGLSLATVKRDWSVARLYLQRALS	0.0743
HMVDGTPALTDLKKVSKPGRRHYTGSQEIPRVLNGLGISIVSTSKGIMTGAQARRQKVGGELLAFV	0.16
HMFSPTKLKEKRESQGLSQSQLASSLGISRASYFNWESGKTKPNQNNLSKLSEILNVDPRYF	0.355
HMRPNREKDMADLEKLAPFLLQMLTNYAQMTGDEKPLNAFITRFGYAAQIRDIQDFFMGPWHPA	≥ 0.62
HMTSNIIIVPNVVGMTKEQATAALAAAGLNIKLSGVETTDTAAVAVKQKPSANTKVEEGSVVTVEFDLK	0.0533
HMATPTEHQLQAQARAVVEKAERLLDRASADDREDIINLIEKITDALAAEDFTAVKAPLAELSDILFYLE	-0.418
HMSPTEQEKIGLFIKKLREEKNLTQEAFASLLKTSQSAVARIESGNQNITIEQLMKIGEVLNHNIVSI	0.0103
HMIETIIGAEGKVLETIDNFNQKGVVALAGKEWTARSADASIIPEGAKVSVVEISGVKLIVTQN	0.067
HMDRSVTAAELRLAAMDLLARREHGSQELEAKLSRRFHKRHYDVELLRSVIEQLTVEGLLSDERFAVS	-0.154
HMEEIPYGVISAKAGAAAYDYIKKSIELGIEKKIDGVATAPIQKEAIHMAGISYIGHTEMYQGIT	0.0739
HMVAQQINDFRSERDASTGTLKRPLFDTLRDVISSRAQAYVSATGKPVTVEDLDRIYQAVEAEAKQAL	0.0781
HMNYTSEDIKLASELFFHLLNNRILPANDVLASQYYDNNEIREILENMAEEGGLRIFGTRENLHLVSNGE	-0.432
HMRLPAISYSFARKHGVVLRLDGDRPVASLREGADPAILIEVKRHLDGAMGVEKVSEAAFDQLLSTTYA	-0.484
HMKITADQEIETAINYFKKSIAEKGWKGVNPDEFKQMNDYLSETFGYSATIKFQKALDEQGLMVDE	0.0602
HMSVTYRYSYVYNGNTYSDGWSVRRAIENNENKRFGPEPSDLDHEAQKQARVTFWAEHGVEYKEQEVV	-0.879
HMDFMNSEIKKIVEDLKLTLQSLNYTKNEIKSILPVINKETDNLIKKEKYASFENLLRLAMNHLDNN	-0.462
HMHNSQTIIDNIKRIANEQNISLSKLAVISGLGKNTITSMTAKTNIKIETLTAIAKSLNVSIHDLTGE	-0.0839
HMKGSPFSQLPKEKKKRILQAAIEVFAQNDYKHASTDEIASRAGISKGLLFYYFHDKKTLYFYLGEYLKR	-0.0373
HMKKQLKSEAVADELRRKILSGGFPDKRLPRKDELTEYFQVSQKTVEAALKMLTAEGLIRGVKGTGIFVNG	-0.0396
HMTELSLSEQAYQQLRRMIVRLDFAPGDVLREEALQEALGMSRTPIREALQRLAREHFVTVIPRRGMFVS	-2.28
HMIGKLTSSKLAAIHKMKTNELLAHFTEKGFLNINDAGKYILTQQGKDVGAEFKTSQYGGYFLWPENIE	-0.841
HMTNSAGIERFLASGAIDGVGPAMARRIVEHFGTEALRIIESVPHRLREISGIGPKTAEKIASSYMRQ	-0.689
HMNRTKYYDFEGHPAKVVRLTLPVYLNKIGDEVVVYDSQKFAREASPISESQYNRMVAEIFQP	-0.354
HMKDMKISTKNLLQELAKNYPDQTSFRKNVIETTARAMGYTGKDFYPLLTTDNRVKIGTYDLATFLRSI	-0.718
HMTTIPAGRQQYILSLIRREGTVTVSRLAQELEVSELTIRRDLDQMAARNLVERTHGGATERR	-0.138
HMTETELYDEVNRLIGLHLSERDRMILIMRDRDEFEIDAIAARTGLSEGNIRLILSRARRTVREAYRNNI	-3.74

Sequence	soluble fraction (log2)
HMGYTLDVAHGVTEDMNFSEAFATAREEVGPGGIFYWHGKPYGTYYENEWNAMDEEDKAEYWDAVGRTTA	-0.149
HMKKLTGVQKAAILMIALGPDISSSIIKRLPENMVERITYEIANMTKITAQQRNDILKEFMDMTVAQ	-1.02
HMNESADMPDVVNMSLEAAKSQLEGMGLKVKVENVEDDSVEENHVIKTSPVSGEKVKLGTTVTLTVSKGR	-0.0231
HMGAGLKIGNDHEYANYLEYKVSVEKYAPGAILGEIKQKGIQFNTTISKTTFYRYITDGVFLTITNADLPV	0.223
HMLPGWMETKFTANVSENTKNRTLEEHVLKMLNNKESAAEFIIFLHEKMMSVSGQVFQLDSR	0.149
HMNELVEATITTQTGRLDKVLTTIFPQYSRSQIQQLLEQGNILVNETLQKGKYKVKAGDKISLTEPAIKE	0.111
HMYPEETVNKILDVSMQLFLEKGYEHTSIQDIVNHLGGLSKGAIYHHFKSKEDILDGVMNKLYQNN	-0.816
HMGDGAWQQGEGGRWWYKYNNGTYPKDRVVTIGGKKYGFDSEGWMLSDTTKAFGGTTYSFAADGVATAQA	-0.0259
HMLQKVELSDNEKFIFDSLQKEQKMALLRLKELVNLSNKAWDVSVKNLTKQGLVKVTKIDEELLIEI	-0.949
HMTTLAADFNSDGRVDIGDLSILAGNWGKSRTNEVDFNKYGDADYNGRIDIIDLSILATQFGQTDNSN	-0.0889
HMDVPNLVGKTLEEAENELKKLNIRYNVTERADEAPKDTVIEQSPKPYEAMEPGTVVNLVISSGPA	0.533
HMIVLPGEELEVHIVQEGKEDGQGVAYLDDGTMVVVEGGRPYVDSFAYVAVTRVLQTGAGRIIFAHPTR	-0.832
HMRSLATFEEEKIALRFWNYLQSEGIKSTLEEEGPRDWVIWVIDEEKIPSATQSLEKFNLNPDDPAFSN	-0.438
HMVDQVDKDRFLEALTQLGGSAGNVRLRETLQWEEEVYVIIKDALVKSGTILTGRGRGGSVLLASA	-1.12
HMTKPLHELLSQREFQVFTQLAAGRSVGEIAQQLSLSSNTVSTYRARILEKTGTRNDVELALYAIRR	-1.52
HMEEPEFEPYVVRLTAIALNVRTGPGTQYPVAMVIRGGGAFTIVAEENGFGLLKSGAGWIMLQHTERV	-0.434
HMATNVLEISTRNKNILIQDSLNLVESFYSKSDNQYWYKLVFKTKDDLNKFLQEVSEDENTITYKTSSI	0.217
HMDPQDGTVKFFNGARGFGFITPDGGGADVFVHVSAVERAGLTQLVEGQRVNFQTLPDTKGKGPKAVNLKV	0.0729
HMHFDQILAHAMDERGMNAVQLASLTGLSSGAISRYLAGDRQPTVYSIQQIAKALGVSADYLVG	-0.884
HMTGQEGLIGAHGVALTRLSNEEGEVKVQGEIWQARSDQEVAKGASIEVVHVDGLVLTVRPQH	-0.0984
HMDWVAYGAELRRRRLLAGWSVAELSRRTNLSTSIIYQVEQARTRLRPSQLTLAKLAAALGMP	-3.15
HMSLSEYLSAPVLEGQRNHALFSAVMQAREQGWDEWQIRTTIGAKAEADGLRHAEIAATIRSAMSREITP	-0.121
HMNFGEVLQTKRKSMGLTQEDLADKLFVSSETISNWETNKTTPDIDNVIRISQLFDISLNNLLL	-0.0758
HMIESLKGILHKKDPTIAIIDVGGVRLSVNITLSTYEKLEEINSSIELLTYFNVREDAMELYG	-0.157
HMDRESFIKLGRELARSAFAHVGQKSTEKALETAADVLRLKDPNEVLARLGSAELTGRQVVQAIYPELI	-0.0704
HMNVEVDSIGDDDFLVKVSAGTSTEHRVTLTDAYWEQIWSSSLPKKEIISLSFAFLLEREPNSSIMRT	0.0604
HMSLIHEQSLKEIRIFINNLPESLRTAFTLREQDGLSYEEISKITDTPIGTVRSRIFRARESILEHINEEL	-1.89
